Results: article PMC4495402 (Genes & Development, 2015)

Biological target: Xenopus histone H3/H4 tetramer (Xenopus, UniProt P84233 21-136; P62799 17-103)
Test: ITC

| Kd | dH | Binder |
| --- | --- | --- |
| 55.6 µM | -38.5 kJ/mol | EPQEEISKHIREIFGYDRKKYKDESDYALRYMESS (domain or fragment) [hSpt2C (610–644) composed of only αC1] |
| 2.3 µM | -163 kJ/mol | ALRYMESSWKEQQKEEAKSLRLGMQEDLEEMRREEEEMQRRRAKKLKRR (domain or fragment) [hSpt2C (637–685) composed of only αC2] |
|  | -80.3 kJ/mol | yeast ySpt2C(259–333) (domain or fragment) PGYDRDEIWAMFNRGKKRSEYDYDELEDDDMEANEMEILEEEEMARKMARLEDKREEAWLKKHEEEKRRRKKGIR |
